Results on one molecule are retold here after US20210032664, “ENGINEERED MEGANUCLEASES WITH RECOGNITION SEQUENCES FOUND IN THE HUMAN BETA-2 MICROGLOBULIN GENE” (Precision Biosciences, Inc., published 2021).

Holding throughout (assay): cell_activity; human T cells, 1 ug mRNA, day 3
Holding throughout (conditions): tags: N-terminal SV40 NLS

Data set [1] deals with T1, B2M 13-14x.93 EER66 (Artificial Sequence).
T1 chain: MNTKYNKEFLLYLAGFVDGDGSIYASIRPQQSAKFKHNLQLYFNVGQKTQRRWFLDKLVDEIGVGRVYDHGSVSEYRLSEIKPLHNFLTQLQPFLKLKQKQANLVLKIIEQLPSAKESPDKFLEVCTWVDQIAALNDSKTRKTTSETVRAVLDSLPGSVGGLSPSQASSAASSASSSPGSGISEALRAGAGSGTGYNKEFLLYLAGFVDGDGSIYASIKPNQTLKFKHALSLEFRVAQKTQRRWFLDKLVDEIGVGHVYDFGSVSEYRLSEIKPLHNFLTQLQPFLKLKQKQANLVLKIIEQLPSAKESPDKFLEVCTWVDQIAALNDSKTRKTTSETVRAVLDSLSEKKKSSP
The protocol: (§1) To test these variants of B2M 13-14x.93, donor human T cells were stimulated with anti-CD3 and anti-CD28 antibodies for 3 days, then electroporated with mRNA encoding a given B2M 13-14 meganuclease (1 μg) using the Amaxa 4D-Nucleofector (Lonza) according to the manufacturer's instructions. At 3 days post-electroporation, cells were stained with an antibody recognizing β-2 microglobulin (BD Biosciences) and analyzed by flow cytometry.

For data set [2], the target named is T2, B2M 13-14x.93 EQ (Artificial Sequence).
T2 chain: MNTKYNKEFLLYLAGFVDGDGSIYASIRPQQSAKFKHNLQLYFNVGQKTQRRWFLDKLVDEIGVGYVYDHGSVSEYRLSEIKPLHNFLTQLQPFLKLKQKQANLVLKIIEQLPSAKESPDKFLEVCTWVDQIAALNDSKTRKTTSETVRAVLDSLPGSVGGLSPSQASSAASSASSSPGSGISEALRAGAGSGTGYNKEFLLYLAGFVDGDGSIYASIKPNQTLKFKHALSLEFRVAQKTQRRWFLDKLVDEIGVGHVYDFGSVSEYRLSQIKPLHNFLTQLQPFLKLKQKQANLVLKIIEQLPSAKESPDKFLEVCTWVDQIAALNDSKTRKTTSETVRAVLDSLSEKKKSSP
On the procedure:
as §1

Data set [3] concerns the target T3, B2M 13-14x.93 EE (Artificial Sequence).
T3 chain: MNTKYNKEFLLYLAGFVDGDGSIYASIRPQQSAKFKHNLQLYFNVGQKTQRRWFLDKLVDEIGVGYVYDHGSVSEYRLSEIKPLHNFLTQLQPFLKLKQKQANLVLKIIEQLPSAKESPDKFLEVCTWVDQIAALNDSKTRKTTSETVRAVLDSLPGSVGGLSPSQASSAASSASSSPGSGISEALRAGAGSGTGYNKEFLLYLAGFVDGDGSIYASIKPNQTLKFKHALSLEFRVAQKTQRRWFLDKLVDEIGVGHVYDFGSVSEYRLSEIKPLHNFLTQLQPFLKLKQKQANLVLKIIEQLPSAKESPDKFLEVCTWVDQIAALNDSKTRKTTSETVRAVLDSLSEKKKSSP
The protocol: as §1

The target of data set [4] is T4, B2M 13-14x.93 QQK66 (Artificial Sequence).
T4 chain: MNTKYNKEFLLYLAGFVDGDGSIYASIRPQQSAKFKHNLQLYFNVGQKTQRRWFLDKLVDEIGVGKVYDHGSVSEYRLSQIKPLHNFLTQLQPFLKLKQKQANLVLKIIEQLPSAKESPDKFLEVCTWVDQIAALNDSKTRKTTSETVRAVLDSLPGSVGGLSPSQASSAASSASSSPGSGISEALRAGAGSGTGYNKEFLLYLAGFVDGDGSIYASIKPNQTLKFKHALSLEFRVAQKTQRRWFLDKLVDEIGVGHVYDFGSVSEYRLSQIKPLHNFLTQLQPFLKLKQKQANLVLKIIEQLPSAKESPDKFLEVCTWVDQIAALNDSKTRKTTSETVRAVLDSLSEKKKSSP
On the procedure: as §1

Data set [5] deals with T5, B2M 13-14x.93 EQK66 (Artificial Sequence).
T5 chain: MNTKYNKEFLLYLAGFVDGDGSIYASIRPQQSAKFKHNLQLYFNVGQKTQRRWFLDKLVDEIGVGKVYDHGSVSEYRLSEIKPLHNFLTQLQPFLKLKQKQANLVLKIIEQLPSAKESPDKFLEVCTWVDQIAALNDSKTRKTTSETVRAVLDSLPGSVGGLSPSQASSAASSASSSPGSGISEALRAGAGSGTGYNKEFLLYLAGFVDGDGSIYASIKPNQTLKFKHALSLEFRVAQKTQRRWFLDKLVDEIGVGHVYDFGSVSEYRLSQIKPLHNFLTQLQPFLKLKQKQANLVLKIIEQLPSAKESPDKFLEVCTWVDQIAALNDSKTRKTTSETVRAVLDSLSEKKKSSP
On the procedure: as §1

In data set [6] the target is T6, B2M 13-14x.93 EQR66 (Artificial Sequence).
T6 chain: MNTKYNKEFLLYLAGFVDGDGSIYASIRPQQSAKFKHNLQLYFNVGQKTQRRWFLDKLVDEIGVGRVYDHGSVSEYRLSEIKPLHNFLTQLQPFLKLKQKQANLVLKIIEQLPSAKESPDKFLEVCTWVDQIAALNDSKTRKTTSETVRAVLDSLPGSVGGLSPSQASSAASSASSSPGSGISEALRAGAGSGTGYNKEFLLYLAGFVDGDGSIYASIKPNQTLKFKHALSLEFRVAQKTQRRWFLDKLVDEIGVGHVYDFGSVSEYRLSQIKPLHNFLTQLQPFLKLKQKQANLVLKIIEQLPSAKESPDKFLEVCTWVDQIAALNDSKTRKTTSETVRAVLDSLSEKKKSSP
The protocol:
as §1

For data set [7], the target named is T7, B2M 13-14x.93 QQR66 (Artificial Sequence).
T7 chain: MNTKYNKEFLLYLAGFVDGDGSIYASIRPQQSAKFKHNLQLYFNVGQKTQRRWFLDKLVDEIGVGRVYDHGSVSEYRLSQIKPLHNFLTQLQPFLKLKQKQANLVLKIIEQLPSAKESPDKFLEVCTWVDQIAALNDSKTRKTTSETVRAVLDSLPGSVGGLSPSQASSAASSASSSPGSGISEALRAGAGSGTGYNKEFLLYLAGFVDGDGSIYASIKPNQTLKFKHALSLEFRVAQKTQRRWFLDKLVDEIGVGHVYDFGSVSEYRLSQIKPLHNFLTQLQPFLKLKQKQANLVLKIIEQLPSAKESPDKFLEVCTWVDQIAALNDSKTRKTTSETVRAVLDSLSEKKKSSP
On the procedure:
as §1

B1: B2M 13-14 recognition sequence (dsDNA)
DNA 1: CTATCTCTTGTACTACACTGAA
DNA 2: TTCAGTGTAGTACAAGAGATAG
On to B1, for which the activity in data set [1] came out at 7.07 % B2M-negative; in data set [2], 5.13 % B2M-negative; in data set [3] it was 18.3 % B2M-negative; in data set [4], 2.64 % B2M-negative; in data set [5], 6.81 % B2M-negative; in data set [6], 5.12 % B2M-negative. Further, the activity in data set [7] was determined as 5.05 % B2M-negative.
